Source: patent publication US20240124597A1 (Bristol-Myers Squibb, published 2024)
Positions count from the first letter of the chain named. In names and notes the source's numbering stands.

B1: Y12XX-hz14 (antibody, human IgG1, kappa, V domains shown)
VH: QVQLVQSGAEVKKPGSSVKVSCKASGYAFTSYWMHWVRQAPGQGLEWMGQINPTTGRSQYNEKFKTRVTITADKSTSTAYMELSSLRSEDTAVYYCARWGLQPFAYWGQGTLVTVSS
VL: DIQMTQSPSSLSASVGDRVTITCKASQDVSTAVAWYQQKPGKAPKLLIYSASYRYTGVPSRFSGSGSGTDFTFTISSLQPEDIATYYCQQHYSTPWTFGGGTKVEIKR
notes: Humanized, IgG1-P238K; supernatant sample
B2: Y12XX-hz1 (antibody, human IgG1, kappa, V domains shown)
VH: B1 VH with Q50F, R57Y, Q59E, E62Q, T66D, Q102P
VL: B1 VL
notes: as for B1
B3: Y12XX-hz2 (antibody, human IgG1, kappa, V domains shown)
VH: B1 VH with A40R, Q50F, R57Y, Q59E, E62Q, T66D, Q102P
VL: B1 VL
notes: as for B1
B4: Y12XX-hz3 (antibody, human IgG1, kappa, V domains shown)
VH: B1 VH with A40R, M48I, Q50F, R57Y, Q59E, E62Q, T66D, S84N, Q102P
VL: B1 VL
notes: as for B1
B5: Y12XX-hz4 (antibody, human IgG1, kappa, V domains shown)
VH: QVQLVQSGAEVKKPGSSVKVSCKASGYAFTSYWMHWVRQAPGQGLEWMGYINPTTGYSAYNQKFKDKATLTADKSTSTAYMELSSLRSEDTAVYYCARWDPRPFAYWGQGTLVTVSS
VL: B1 VL
notes: as for B1
B6: Y12XX-hz5 (antibody, human IgG1, kappa, V domains shown)
VH: B5 VH with A40R
VL: B1 VL
notes: as for B1
B7: Y12XX-hz8 (antibody, human IgG1, kappa, V domains shown)
VH: B5 VH with P101A
VL: B1 VL
notes: as for B1
B8: Y12XX-hz9 (antibody, human IgG1, kappa, V domains shown)
VH: B1 VH with T54S, T55N
VL: B1 VL
notes: as for B1
B9: Y12XX-hz10 (antibody, human IgG1, kappa, V domains shown)
VH: B1 VH with A40R, T54S, T55N
VL: B1 VL
notes: as for B1
B10: Y12XX-hz11 (antibody, human IgG1, kappa, V domains shown)
VH: B1 VH with A40R, M48I, T54S, T55N
VL: B1 VL
notes: as for B1
B11: Y12XX-hz12 (antibody, human IgG1, kappa, V domains shown)
VH: B1 VH with T54S, T55Q
VL: B1 VL
notes: as for B1
B12: Y12XX-hz13 (antibody, human IgG1, kappa, V domains shown)
VH: B1 VH with T54S, T55N, G56A
VL: B1 VL
notes: as for B1
B13: Y12XX-hz15 (antibody, human IgG1, kappa, V domains shown)
VH: B1 VH with Q50F, R57Y, Q59E, E62Q, T66D, Q102P
VL: B1 VL with S10F, F73L, I83F
notes: as for B1
B14: Y12XX-hz17 (antibody, human IgG1, kappa, V domains shown)
VH: B1 VH with A40R, M48I, Q50F, R57Y, Q59E, E62Q, T66D, S84N, Q102P
VL: B1 VL with S10F, F73L, I83F
notes: as for B1
B15: Y12XX-hz23 (antibody, human IgG1, kappa, V domains shown)
VH: B1 VH with T54S, T55N
VL: B1 VL with S10F, F73L, I83F
notes: as for B1
B16: Y12XX-hz24 (antibody, human IgG1, kappa, V domains shown)
VH: B1 VH with A40R, T54S, T55N
VL: B1 VL with S10F, F73L, I83F
notes: as for B1
B17: Y12XX-hz25 (antibody, human IgG1, kappa, V domains shown)
VH: B1 VH with A40R, M48I, T54S, T55N
VL: B1 VL with S10F, F73L, I83F
notes: as for B1
B18: Y12XX-hz26 (antibody, human IgG1, kappa, V domains shown)
VH: B1 VH with T54S, T55Q
VL: B1 VL with S10F, F73L, I83F
notes: as for B1
B19: Y12XX-hz27 (antibody, human IgG1, kappa, V domains shown)
VH: B1 VH with T54S, T55N, G56A
VL: B1 VL with S10F, F73L, I83F
notes: as for B1
B20: Y12XX-hz29 (antibody, human IgG1, kappa, V domains shown)
VH: B1 VH with Q50F, R57Y, Q59E, E62Q, T66D, Q102P
VL: EIVMTQSPATLSVSPGERATLSCKASQDVSTAVAWYQQKPGQAPRLLIYSASYRYTGIPARFSGSGSGTEFTLTISSLQSEDFAVYYCQQHYSTPWTFGGGTKVEIKR
notes: as for B1
B21: Y12XX-hz30 (antibody, human IgG1, kappa, V domains shown)
VH: B1 VH with A40R, Q50F, R57Y, Q59E, E62Q, T66D, Q102P
VL: B20 VL
notes: as for B1
B22: Y12XX-hz31 (antibody, human IgG1, kappa, V domains shown)
VH: B1 VH with A40R, M48I, Q50F, R57Y, Q59E, E62Q, T66D, S84N, Q102P
VL: B20 VL
notes: as for B1
B23: Y12XX-hz32 (antibody, human IgG1, kappa, V domains shown)
VH: B5 VH
VL: B20 VL
notes: as for B1
B24: Y12XX-hz33 (antibody, human IgG1, kappa, V domains shown)
VH: B5 VH with A40R
VL: B20 VL
notes: as for B1
B25: Y12XX-hz36 (antibody, human IgG1, kappa, V domains shown)
VH: B5 VH with P101A
VL: B20 VL
notes: as for B1
B26: Y12XX-hz37 (antibody, human IgG1, kappa, V domains shown)
VH: B1 VH with T54S, T55N
VL: B20 VL
notes: as for B1
B27: Y12XX-hz38 (antibody, human IgG1, kappa, V domains shown)
VH: B1 VH with A40R, T54S, T55N
VL: B20 VL
notes: as for B1
B28: Y12XX-hz39 (antibody, human IgG1, kappa, V domains shown)
VH: B1 VH with A40R, M48I, T54S, T55N
VL: B20 VL
notes: as for B1
B29: Y12XX-hz41 (antibody, human IgG1, kappa, V domains shown)
VH: B1 VH with T54S, T55N, G56A
VL: B20 VL
notes: as for B1
B30: Y1258 (antibody, human IgG1, kappa)
heavy: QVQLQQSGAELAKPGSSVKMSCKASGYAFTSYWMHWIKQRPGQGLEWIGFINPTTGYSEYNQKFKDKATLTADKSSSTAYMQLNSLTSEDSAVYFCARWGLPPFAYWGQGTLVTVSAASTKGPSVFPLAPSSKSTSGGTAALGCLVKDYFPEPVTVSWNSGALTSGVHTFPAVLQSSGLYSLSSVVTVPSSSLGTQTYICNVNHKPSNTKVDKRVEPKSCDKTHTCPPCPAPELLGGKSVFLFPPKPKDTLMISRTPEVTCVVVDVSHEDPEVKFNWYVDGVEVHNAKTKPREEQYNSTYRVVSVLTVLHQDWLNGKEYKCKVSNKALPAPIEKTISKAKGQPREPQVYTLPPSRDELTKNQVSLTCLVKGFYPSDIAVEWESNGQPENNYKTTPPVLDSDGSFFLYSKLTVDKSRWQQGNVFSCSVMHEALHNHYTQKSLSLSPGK
light: DIVMTQSHKFMSTSVGDRVSITCKASQDVSTAVAWYQQKPGQSPKLLIYSASYRYTGVPDRFTGSGSGTDFTFTISSVQAEDLAVYYCQQHYSTPWTFGGGTKLEIKRTVAAPSVFIFPPSDEQLKSGTASVVCLLNNFYPREAKVQWKVDNALQSGNSQESVTEQDSKDSTYSLSSTLTLSKADYEKHKVYACEVTHQGLSSPVTKSFNRGEC
notes: Chimeric, mouse variable and human constant regions; supernatant sample; also called chimeric Y1258
B31: Y1262 (antibody, human IgG1, kappa)
heavy: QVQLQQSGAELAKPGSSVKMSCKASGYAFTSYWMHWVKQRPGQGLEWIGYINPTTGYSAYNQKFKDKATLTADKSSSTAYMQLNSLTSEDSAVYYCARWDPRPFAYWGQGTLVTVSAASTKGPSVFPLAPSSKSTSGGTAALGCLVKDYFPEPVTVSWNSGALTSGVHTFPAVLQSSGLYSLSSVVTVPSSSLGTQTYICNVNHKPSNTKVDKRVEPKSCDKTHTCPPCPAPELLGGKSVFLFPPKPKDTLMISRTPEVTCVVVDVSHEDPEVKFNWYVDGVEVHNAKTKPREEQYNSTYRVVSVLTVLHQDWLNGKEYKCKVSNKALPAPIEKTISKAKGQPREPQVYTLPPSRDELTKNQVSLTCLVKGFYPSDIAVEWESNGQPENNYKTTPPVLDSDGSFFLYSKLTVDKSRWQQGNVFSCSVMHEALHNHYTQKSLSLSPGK
light: B30 light with S67Y
notes: Chimeric, mouse variable and human constant regions; supernatant sample; also called chimeric Y1262; Chim
B32: Y12XX-hz18 (antibody, human IgG1, kappa, V domains shown)
VH: B5 VH
VL: B1 VL with S10F, F73L, I83F
notes: as for B1

target: T1, human-CD40-monomer protein (human, UniProt P25942 21-193, limits assumed); assay: SPR, Ab captured on protein A, hCD40 monomer 500 and 50 nM, 1:1 fit; supernatant
T1 construct: Soluble monomer generated in house, used as SPR analyte; also called hCD40; hCD40-monomer
Method: Titer analysis was performed using Biolayer Interferometry (BLI) on an Octet RED instrument (Fortebio) by capturing antibodies from supernatant using protein A sensor tips and measuring capture response with respect to a standard curve obtained using a control antibody sample. SPR data were obtained by capturing antibodies on a protein A surface and testing the binding of 500 nM and 50 nM injections of human-CD40 analyte, using a BIAcore™ T200 instrument (GE Healthcare). The kinetic data for the two concentrations of hCD40-monomer were fit to a 1:1 Langmuir model, to yield estimates of the kinetic and affinity values for these interactions, and for comparison of the different molecules.

T1 sequence (P25942 21-193 limits assumed): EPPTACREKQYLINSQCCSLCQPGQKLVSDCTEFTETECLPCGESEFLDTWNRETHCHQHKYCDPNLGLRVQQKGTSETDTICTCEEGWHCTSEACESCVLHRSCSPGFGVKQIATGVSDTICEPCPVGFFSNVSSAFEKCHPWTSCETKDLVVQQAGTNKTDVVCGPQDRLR

With B1 as the binder, how does the Kd read?
The Kd was 5 nM.

What about the koff of the same binder?
Its koff is 0.00083 s⁻¹.

What about the kon of the same binder?
The kon was 170000 M⁻¹ s⁻¹.

Which results are given for B2?
Kd: 1.1 nM; koff: 1.6e-05 s⁻¹; kon: 15000 M⁻¹ s⁻¹

What does the source list for B3?
Kd: 4.1 nM; koff: 7.1e-05 s⁻¹; kon: 17000 M⁻¹ s⁻¹

For B4, which Kd is on record?
The Kd was 4.5 nM.

And the koff?
The koff was 6.7e-05 s⁻¹.

What about the kon of the same binder?
Its kon is 15000 M⁻¹ s⁻¹.

Which Kd does the source give for B5 here?
Its Kd is 4.7 nM.

What about the koff of the same binder?
The koff was 0.0022 s⁻¹.

What about the kon of the same binder?
The kon was 460000 M⁻¹ s⁻¹.

What does the source list for B6?
Kd: 7.2 nM; koff: 0.0025 s⁻¹; kon: 350000 M⁻¹ s⁻¹

For B7, which Kd is on record?
Its Kd is 210 nM.

What about the koff of the same binder?
Its koff is 0.15 s⁻¹.

And the kon?
The kon was 720000 M⁻¹ s⁻¹.

Which Kd does the source give for B8 here?
The Kd was 4.6 nM.

And the koff?
Its koff is 0.00089 s⁻¹.

And the kon?
The kon was 200000 M⁻¹ s⁻¹.

With B9 as the binder, how does the Kd read?
Its Kd is 3.6 nM.

And the koff?
Its koff is 0.00073 s⁻¹.

And the kon?
Its kon is 200000 M⁻¹ s⁻¹.

What does the source list for B10?
Kd: 5 nM; koff: 0.00088 s⁻¹; kon: 180000 M⁻¹ s⁻¹

With B11 as the binder, how does the Kd read?
The Kd was 8.3 nM.

What about the koff of the same binder?
Its koff is 0.0014 s⁻¹.

What about the kon of the same binder?
The kon was 170000 M⁻¹ s⁻¹.

B12 was tested. Which Kd did it give?
Its Kd is 3.9 nM.

And the koff?
Its koff is 0.00083 s⁻¹.

What about the kon of the same binder?
The kon was 210000 M⁻¹ s⁻¹.

B13 was tested. Which Kd did it give?
Its Kd is 8 nM.

And the koff?
The koff was 0.00013 s⁻¹.

And the kon?
Its kon is 16000 M⁻¹ s⁻¹.

What does the source list for B14?
Kd: 210 nM; koff: 0.077 s⁻¹; kon: 370000 M⁻¹ s⁻¹

B15 was tested. Which Kd did it give?
Its Kd is 3.2 nM.

What about the koff of the same binder?
Its koff is 0.00064 s⁻¹.

What about the kon of the same binder?
The kon was 200000 M⁻¹ s⁻¹.

B16 was tested. Which Kd did it give?
The Kd was 4.4 nM.

What about the koff of the same binder?
Its koff is 0.00082 s⁻¹.

What about the kon of the same binder?
The kon was 190000 M⁻¹ s⁻¹.

B17 was tested. Which Kd did it give?
The Kd was 3.4 nM.

What about the koff of the same binder?
The koff was 0.00064 s⁻¹.

And the kon?
Its kon is 190000 M⁻¹ s⁻¹.

B18 was tested. Which Kd did it give?
Its Kd is 7.5 nM.

What about the koff of the same binder?
Its koff is 0.0012 s⁻¹.

And the kon?
Its kon is 160000 M⁻¹ s⁻¹.

With B19 as the binder, how does the Kd read?
Its Kd is 4.7 nM.

What about the koff of the same binder?
The koff was 0.00088 s⁻¹.

What about the kon of the same binder?
Its kon is 190000 M⁻¹ s⁻¹.

B20 was tested. Which Kd did it give?
The Kd was 0.069 nM.

What about the koff of the same binder?
The koff was 2.6e-06 s⁻¹.

What about the kon of the same binder?
The kon was 37000 M⁻¹ s⁻¹.

Which results are given for B21?
Kd: 0.018 nM; koff: 7.3e-07 s⁻¹; kon: 41000 M⁻¹ s⁻¹

With B22 as the binder, how does the Kd read?
Its Kd is 0.007 nM.

What about the koff of the same binder?
Its koff is 2.9e-07 s⁻¹.

What about the kon of the same binder?
Its kon is 41000 M⁻¹ s⁻¹.

What does the source list for B23?
Kd: 10 nM; koff: 0.003 s⁻¹; kon: 290000 M⁻¹ s⁻¹

With B24 as the binder, how does the Kd read?
The Kd was 11 nM.

What about the koff of the same binder?
The koff was 0.0033 s⁻¹.

And the kon?
Its kon is 290000 M⁻¹ s⁻¹.

Which Kd does the source give for B25 here?
Its Kd is 250 nM.

What about the koff of the same binder?
Its koff is 0.1 s⁻¹.

What about the kon of the same binder?
The kon was 390000 M⁻¹ s⁻¹.

How did the Kd turn out when B26 was run?
Its Kd is 3.3 nM.

And the koff?
The koff was 0.00084 s⁻¹.

And the kon?
Its kon is 260000 M⁻¹ s⁻¹.

How did the Kd turn out when B27 was run?
The Kd was 3.6 nM.

And the koff?
Its koff is 0.00088 s⁻¹.

What about the kon of the same binder?
Its kon is 250000 M⁻¹ s⁻¹.

Which results are given for B28?
Kd: 3.5 nM; koff: 0.00084 s⁻¹; kon: 240000 M⁻¹ s⁻¹

What does the source list for B29?
Kd: 3.8 nM; koff: 0.00094 s⁻¹; kon: 250000 M⁻¹ s⁻¹

B30 was tested. Which Kd did it give?
The Kd was 0.067 nM.

And the koff?
Its koff is 3.8e-06 s⁻¹.

What about the kon of the same binder?
Its kon is 56000 M⁻¹ s⁻¹.

Which Kd does the source give for B31 here?
The Kd was 8 nM.

And the koff?
Its koff is 0.0028 s⁻¹.

What about the kon of the same binder?
Its kon is 350000 M⁻¹ s⁻¹.

B32 was tested. Which Kd did it give?
Its Kd is 7.1 nM.

What about the koff of the same binder?
The koff was 0.0024 s⁻¹.

And the kon?
The kon was 350000 M⁻¹ s⁻¹.
